From article doi:10.1101/820381v1 (biorxiv, 2019)
Values belong to the compound of their own block, whether it stands above or below them.

Experiments:
[1] = biological target: T1, OPR3 (12-oxophytodienoic acid reductase 3) (Arabidopsis thaliana, UniProt Q9FUP0); assay: intrinsic Trp fluorescence quenching; type: binding; conditions: 0.75 µmol/L OPR3, 40 mmol/L KPi pH 7.2, 25°C
[2] = tested on: O=C1C=CCC1; assay: purified protein; conditions: pH 7.2; 25.0 °C
[3] = tested on: [O]C1=C(O)[C@@H]([C@@H](O)CO)OC1=O; assay: purified protein; conditions: pH 7.8
[4] = tested on: CC/C=C\C[C@@H]1C(=O)C=C[C@@H]1CCCCCCCC(=O)O; assay: purified protein; conditions: pH 7.2; 25.0 °C
[5] = biological target: T1, OPR3 (12-oxophytodienoic acid reductase 3); conditions: NADPH co-substrate, 40 mmol/L KPi pH 7.2, 25°C, aerobic

T1 sequence (Q9FUP0 whole entry): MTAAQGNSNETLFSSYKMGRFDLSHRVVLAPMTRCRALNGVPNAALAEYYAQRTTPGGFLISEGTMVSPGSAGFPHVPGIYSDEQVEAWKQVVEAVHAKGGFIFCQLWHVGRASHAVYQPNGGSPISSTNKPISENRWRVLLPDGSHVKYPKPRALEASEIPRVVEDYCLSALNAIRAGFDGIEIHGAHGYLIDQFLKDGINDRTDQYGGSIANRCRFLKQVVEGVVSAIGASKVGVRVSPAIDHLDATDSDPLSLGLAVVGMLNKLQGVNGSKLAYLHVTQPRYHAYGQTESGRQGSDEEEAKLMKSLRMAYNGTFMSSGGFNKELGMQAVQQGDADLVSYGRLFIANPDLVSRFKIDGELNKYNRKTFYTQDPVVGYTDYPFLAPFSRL

% quenching at 607 μmol/L [1]: 54.0±0.4%
Compound: CC/C=C\C[C@@H]1C(=O)C=C[C@@H]1CCCCCCCC(=O)O [12-OPDA]

Compound: OPR3 (12-oxophytodienoic acid reductase 3) (Arabidopsis thaliana)
Km [2]: 1967 ± 825 µM
Km [3]: 1 µM
Km [4]: 28.3 ± 8.5 µM

Compound: C=CC(C)=O [MVK]
Km [5]: 38.5 ± 14 µM
